One test addresses HSP70 (ATP-bound) (human). Nature of the test: ITC, ATP. (In general: In ITC the heat of successive injections is recorded.)
For a further test, the target named is HSP70 (ADP-bound) (human). In words: ITC, ADP.
Chain of HSP70 (ADP-bound) (human) (chain, as listed by the source): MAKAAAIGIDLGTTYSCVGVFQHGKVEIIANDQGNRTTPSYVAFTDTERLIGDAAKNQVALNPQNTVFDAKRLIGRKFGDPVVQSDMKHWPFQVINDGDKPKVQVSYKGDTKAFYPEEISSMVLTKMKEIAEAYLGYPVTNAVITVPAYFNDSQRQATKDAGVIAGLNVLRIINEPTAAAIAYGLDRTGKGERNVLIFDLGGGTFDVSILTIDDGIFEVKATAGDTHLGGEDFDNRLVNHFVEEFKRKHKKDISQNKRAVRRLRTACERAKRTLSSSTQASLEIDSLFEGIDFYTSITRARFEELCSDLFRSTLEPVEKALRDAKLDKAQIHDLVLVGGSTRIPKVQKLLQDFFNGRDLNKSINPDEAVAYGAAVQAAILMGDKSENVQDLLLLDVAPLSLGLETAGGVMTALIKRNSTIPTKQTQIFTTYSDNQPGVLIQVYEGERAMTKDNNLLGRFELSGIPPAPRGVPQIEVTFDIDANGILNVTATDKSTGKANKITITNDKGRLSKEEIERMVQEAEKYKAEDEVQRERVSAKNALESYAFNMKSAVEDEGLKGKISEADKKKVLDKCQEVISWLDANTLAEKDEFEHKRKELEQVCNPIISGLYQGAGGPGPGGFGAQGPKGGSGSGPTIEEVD

Chain of HSP70 (ATP-bound) (human) (chain, as listed by the source): as above

As a reminder, the Kd is the constant that tells how readily two partners part at equilibrium. Take NRLLLTG [NRLLLTG peptide]: the Kd was found to be 1250 µM with HSP70 (ATP-bound) and 10 µM with HSP70 (ADP-bound).
